Data reported in article PMC6895277.
Where two headings read alike, the source gives them in different places.

Key:
[1] = system: T1, VEGF165 (human), P15692-4; assay: SPR; conditions: biotin-dT at T54, SPR: 1x PBS (1 mM KH2PO4, 3 mM Na2HPO4, 155 mM NaCl; 205 mM NaCl for IFNγ), pH 7.4, 0.05% Nonidet P-40, 25°C, EMSA: 1x PBS, 0.05% NP-40, 25°C, 25 nM DNA, 50 nM …
T1 sequence: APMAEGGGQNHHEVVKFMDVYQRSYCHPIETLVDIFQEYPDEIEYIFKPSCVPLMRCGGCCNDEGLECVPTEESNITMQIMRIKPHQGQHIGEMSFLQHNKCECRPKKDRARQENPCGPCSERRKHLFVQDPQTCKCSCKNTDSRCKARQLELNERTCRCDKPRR

[2] = target: T2, IFNγ (human) (UniProt P01579); assay: SPR; conditions: biotin-dT at T53, SPR: 1x PBS (1 mM KH2PO4, 3 mM Na2HPO4, 155 mM NaCl; 205 mM NaCl for IFNγ), pH 7.4, 0.05% Nonidet P-40, 25°C, EMSA: 1x PBS, 0.05% NP-40, 25°C, 25 nM DNA, 50 nM …
T2 sequence: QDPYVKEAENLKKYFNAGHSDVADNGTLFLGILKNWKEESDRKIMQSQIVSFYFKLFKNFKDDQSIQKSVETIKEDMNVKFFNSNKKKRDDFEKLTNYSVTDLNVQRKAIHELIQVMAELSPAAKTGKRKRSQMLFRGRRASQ

[3] = target: T2, IFNγ (human); conditions: N28 and N39 = Ds; biotin-dT at T53; SPR: 1x PBS (1 mM KH2PO4, 3 mM Na2HPO4, 155 mM NaCl; 205 mM NaCl for IFNγ), pH 7.4, 0.05% Nonidet P-40, 25°C; EMSA: 1x PBS, 0.05% NP-40, 25°C, 25 nM DNA, 50 nM …; cited from earlier work
[4] = system: T1, VEGF165 (human), P15692-4; conditions: N25 and N34 = Ds (7-(2-thienyl)imidazo[4,5-b]pyridine); biotin-dT at T54; SPR: 1x PBS (1 mM KH2PO4, 3 mM Na2HPO4, 155 mM NaCl; 205 mM NaCl for IFNγ), pH 7.4, 0.05% Nonidet P-40, 25°C; EMSA: 1x PBS, 0.05% NP-40, 25°C, 25 nM DNA, 50 nM …; cited from earlier work

With “GCGGTAAGCCGCGTCCGAAGGGGCNTGCGGCGAACCCGAATGGGTCCGCCGCGTAGCG [V-Apt3 (DA)]” the Kd ([1]; N25 = Ds) was 58 pM.
In the case of “CCCGCCCGGGTCCGCGAAGCGGTAGGTNTGGGCTAGGCNGCTGGCGGGCGCGTAGCG [I-Apt1 (DD)]”, the Kd ([2]; N28 and N39 = Ds) is given as 13 pM and the Kd [3] is given as 33 pM.
In the case of “GCGGTAAGCCGCGTCCGAAGGGGCNTGCGGCGANCCCGAATGGGTCCGCCGCGTAGCG [V-Apt1 (DD)]”, the Kd ([1]; N25 and N34 = Ds (7-(2-thienyl)imidazo[4,5-b]pyridine)) is listed as 1.6 pM and the Kd [4] is listed as 1 pM.
“GCGGTAAGCCGCGTCCGAAGGGGCATGCGGCGAACCCGAATGGGTCCGCCGCGTAGCG [V-Apt4 (AA)]” gave a Kd [1] of 160 pM.
In the case of “GCGGTAAGCCGCGTCCGAAGGGGCATGCGGCGANCCCGAATGGGTCCGCCGCGTAGCG [V-Apt2 (AD)]”, the Kd ([1]; N34 = Ds) is reported as 2 pM.
“CCCGCCCGGGTCCGCGAAGCGGTAGGTATGGGCTAGGCAGCTGGCGGGCGCGTAGCG [I-Apt4 (AA)]” showed a Kd [2] of 16000 pM.
